In paper PMC6543031:

Target: N-tagged HA-SadB protein (Pseudomonas fluorescens F113)
Assay: SEC; gel filtration of HA-SadB, in the presence or absence of c-di-GMP; data not shown

stoichiometry N: 2
Substance: N-tagged HA-SadB protein (natural protein)
